Tests used:
[1] = molecular target: T1, flavodoxin II (flavodoxin; apoflavodoxin) (Azotobacter vinelandii, UniProt P00324); experiment: native nano-electrospray mass spectrometry; assay type: binding; details: non-covalent, one FMN per monomer; 50 mM ammonium acetate, 0.1 mM EDTA, pH 6.8
T1 construct: gene nifF; full-length wild type, 179 residues, expressed in E. coli TG2 (pAV34); monomer; apoprotein made by TCA precipitation

[2] = molecular target: Apoflavodoxin (A. vinelandii flavodoxin II without FMN cofactor) (Azotobacter vinelandii) (UniProt P00324); experiment: SEC; data not shown; apoflavodoxin freshly prepared and during storage
[3] = molecular target: Apoflavodoxin (A. vinelandii flavodoxin II without FMN cofactor) (Azotobacter vinelandii) (UniProt P00324); experiment: anion exchange chromatography; MonoQ HR5/5, 25 mM Tris-HCl pH 8.0, KCl gradient, 1.0 mL/min, 25°C; apoflavodoxin 50 μM left without DTT
[4] = molecular target: Apoflavodoxin (A. vinelandii flavodoxin II without FMN cofactor) (Azotobacter vinelandii) (UniProt P00324); experiment: SEC; Superdex 75 HR 10/30, 0.5 mL/min, 25°C; apoprotein (38 μM wild type, 79 μM C69A) fresh and after 22-24 h with 10 mM H2O2 at 4°C; DTT removed before
[5] = molecular target: Apoflavodoxin (A. vinelandii flavodoxin II without FMN cofactor) (Azotobacter vinelandii) (UniProt P00324); experiment: LC-MS; reversed phase (acetonitrile, TFA) and electrospray MS; protein 5 µM after 30 min at room temperature with 10 or 100 mM H2O2, with or without 190-200 µM NBD-Cl; denaturing, shows covalent dimers only

T1 sequence (P00324 2-180): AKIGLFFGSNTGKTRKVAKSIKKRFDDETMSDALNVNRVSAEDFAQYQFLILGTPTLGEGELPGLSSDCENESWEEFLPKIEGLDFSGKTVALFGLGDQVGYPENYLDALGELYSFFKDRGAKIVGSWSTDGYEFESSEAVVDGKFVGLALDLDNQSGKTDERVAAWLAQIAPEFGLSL

| stoichiometry N [2] | stoichiometry N [3] | stoichiometry N [4] | stoichiometry N [5] | Molecule | native nano-electrospray mass spectrometry [1] |
| --- | --- | --- | --- | --- | --- |
| – | – | – | – | Cc1cc2nc3c(=O)[nH]c(=O)nc-3n(C[C@H](O)[C@H](O)[C@H](O)COP(=O)(O)O)c2cc1C [FMN] | flavodoxin indeed contains a single, non-covalently bound, FMN cofactor |
| 2 | 2 | 2 | 2 | Apoflavodoxin (A. vinelandii flavodoxin II without FMN cofactor) (from UniProt P00324 1-180) (natural protein) | – |

Source: article PMC3400614, “Cofactor Binding Protects Flavodoxin against Oxidative Stress” (PLoS ONE, 2012)
